Data published in article PMC9482650, “Quantitative fragmentomics allow affinity mapping of interactomes” (Nature Communications, 2022).

T1: NHERF3_3, Q5T2W1
T1 sequence (Q5T2W1 238-333, limits assumed, looked up): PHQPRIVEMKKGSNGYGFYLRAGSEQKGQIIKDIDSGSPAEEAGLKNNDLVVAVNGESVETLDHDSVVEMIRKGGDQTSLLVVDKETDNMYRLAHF

T2: LIN7A, O14910
T2 sequence (O14910 103-200, limits assumed, looked up): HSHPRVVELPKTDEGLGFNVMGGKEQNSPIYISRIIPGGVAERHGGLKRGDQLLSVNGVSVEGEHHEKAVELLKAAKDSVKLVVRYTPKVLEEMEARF

T3: DLG3_1, Q92796
T3 sequence (Q92796 125-227, limits assumed, looked up): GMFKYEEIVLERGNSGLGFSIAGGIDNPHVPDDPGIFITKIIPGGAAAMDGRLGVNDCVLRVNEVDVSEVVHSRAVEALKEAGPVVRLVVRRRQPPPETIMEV

T4: SNTG2, Q9NY99
T4 sequence (Q9NY99 68-166, limits assumed, looked up): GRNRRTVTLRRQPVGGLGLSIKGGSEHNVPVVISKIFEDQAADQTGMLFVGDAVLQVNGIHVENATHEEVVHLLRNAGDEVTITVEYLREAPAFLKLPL

T5: RHPN1, Q8TCX5
T5 sequence (Q8TCX5 508-602, limits assumed, looked up): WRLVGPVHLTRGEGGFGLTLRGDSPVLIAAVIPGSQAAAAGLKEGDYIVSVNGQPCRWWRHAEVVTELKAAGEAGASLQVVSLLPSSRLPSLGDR

T6: SNTG1, Q9NSN8
T6 sequence (Q9NSN8 52-150, limits assumed, looked up): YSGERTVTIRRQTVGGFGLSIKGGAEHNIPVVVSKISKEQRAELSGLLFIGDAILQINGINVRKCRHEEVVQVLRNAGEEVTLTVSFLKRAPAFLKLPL

T7: MPDZ_5, O75970
T7 sequence (O75970 695-796, limits assumed, looked up): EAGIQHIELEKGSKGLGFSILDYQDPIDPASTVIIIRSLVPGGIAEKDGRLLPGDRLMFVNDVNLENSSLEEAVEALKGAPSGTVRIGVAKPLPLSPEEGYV

T8: DLG3_2, Q92796
T8 sequence (Q92796 221-321, limits assumed, looked up): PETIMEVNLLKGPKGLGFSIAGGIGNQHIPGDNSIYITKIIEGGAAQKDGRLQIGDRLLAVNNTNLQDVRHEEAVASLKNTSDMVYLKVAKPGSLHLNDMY

T9: RADIL, Q96JH8
T9 sequence (Q96JH8 971-1071, limits assumed, looked up): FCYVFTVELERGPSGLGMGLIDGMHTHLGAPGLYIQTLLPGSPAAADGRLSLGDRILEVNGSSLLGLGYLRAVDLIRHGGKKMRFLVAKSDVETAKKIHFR

T10: PTPN13_1, Q12923
T10 sequence (Q12923 1088-1188, limits assumed, looked up): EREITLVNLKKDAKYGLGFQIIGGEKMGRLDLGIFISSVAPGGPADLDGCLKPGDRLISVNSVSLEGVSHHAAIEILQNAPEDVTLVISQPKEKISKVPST

T11: DFNB31_1, Q9P202
T11 sequence (Q9P202 135-233, limits assumed, looked up): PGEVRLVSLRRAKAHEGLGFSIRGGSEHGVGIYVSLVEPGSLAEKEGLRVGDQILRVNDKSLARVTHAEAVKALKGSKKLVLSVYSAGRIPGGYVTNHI

B1: ADGRE5, P48960 (peptide)
chain: RALRASESGI
B2: TTC24, A2A3L6 (peptide)
chain: PMESGICTIV

The binders below were run against T1, NHERF3_3, Q5T2W1 (assay: holdup assay). Conditions: plain residues with an end cap or a label only (N-terminal biotin on a linker: ado-ado).
Set-up: key: below the threshold = too weak to quantify, mostly under pKd 3.1 to 4

Binder | pKd
B1 | below the threshold
B2 | below the threshold

The binders below were run against T2, LIN7A, O14910 (assay: holdup assay). Conditions: plain residues with an end cap or a label only (N-terminal biotin on a linker: ado-ado).
Set-up: key: below the threshold = too weak to quantify, mostly under pKd 3.1 to 4

Binder | pKd
B1 | below the threshold
B2 | below the threshold

Each binder was assayed against Inadl_9, Q8NI35 (assay: holdup assay). Conditions: plain residues with an end cap or a label only (N-terminal biotin on a linker: ado-ado).
Sequence of Inadl_9, Q8NI35 (Q8NI35 1530-1615): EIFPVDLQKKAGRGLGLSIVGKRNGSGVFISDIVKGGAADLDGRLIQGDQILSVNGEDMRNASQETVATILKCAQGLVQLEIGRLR
Set-up: key: below the threshold = too weak to quantify, mostly under pKd 3.1 to 4

Binder | pKd
B1 | below the threshold
B2 | 4.06

What follows are binders tested against FRMPD2_2, Q68DX3 (assay: holdup assay). Conditions: plain residues with an end cap or a label only (N-terminal biotin on a linker: ado-ado).
Sequence of FRMPD2_2, Q68DX3 (Q68DX3 944-1038): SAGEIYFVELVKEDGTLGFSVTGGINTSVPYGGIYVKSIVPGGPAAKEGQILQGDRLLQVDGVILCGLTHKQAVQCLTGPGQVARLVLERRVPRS
Set-up: key: below the threshold = too weak to quantify, mostly under pKd 3.1 to 4

Binder | pKd
B1 | below the threshold
B2 | 4.29

These binders were tested against T3, DLG3_1, Q92796 (assay: holdup assay). Conditions: plain residues with an end cap or a label only (N-terminal biotin on a linker: ado-ado).
Set-up: key: below the threshold = too weak to quantify, mostly under pKd 3.1 to 4

Binder | pKd
B1 | below the threshold
B2 | 4.18

These binders were tested against GORASP2, Q9H8Y8 (assay: holdup assay). Conditions: plain residues with an end cap or a label only (N-terminal biotin on a linker: ado-ado).
Set-up: key: below the threshold = too weak to quantify, mostly under pKd 3.1 to 4

Binder | pKd
B1 | below the threshold
B2 | 4.64

What follows are binders tested against Inadl_3, Q8NI35 (assay: holdup assay). Conditions: plain residues with an end cap or a label only (N-terminal biotin on a linker: ado-ado).
Sequence of Inadl_3, Q8NI35 (Q8NI35 359-469): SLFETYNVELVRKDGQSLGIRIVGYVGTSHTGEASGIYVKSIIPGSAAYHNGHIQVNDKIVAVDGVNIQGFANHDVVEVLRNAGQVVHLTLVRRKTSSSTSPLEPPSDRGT
Set-up: key: below the threshold = too weak to quantify, mostly under pKd 3.1 to 4

Binder | pKd
B1 | below the threshold
B2 | 4.65

The binders below were run against AHNAK1, Q09666 (assay: holdup assay). Conditions: plain residues with an end cap or a label only (N-terminal biotin on a linker: ado-ado).
Sequence of AHNAK1, Q09666 (Q09666 4-100): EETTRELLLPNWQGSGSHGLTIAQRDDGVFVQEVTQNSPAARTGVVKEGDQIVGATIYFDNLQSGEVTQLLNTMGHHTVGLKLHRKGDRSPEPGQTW
Set-up: key: below the threshold = too weak to quantify, mostly under pKd 3.1 to 4

Binder | pKd
B1 | below the threshold
B2 | below the threshold

The binders below were run against DLG1_3, Q12959 (assay: holdup assay). Conditions: plain residues with an end cap or a label only (N-terminal biotin on a linker: ado-ado).
Sequence of DLG1_3, Q12959 (Q12959 457-571): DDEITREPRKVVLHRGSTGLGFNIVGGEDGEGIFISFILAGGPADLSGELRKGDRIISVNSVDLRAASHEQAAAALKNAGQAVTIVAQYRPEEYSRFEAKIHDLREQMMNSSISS
Set-up: key: below the threshold = too weak to quantify, mostly under pKd 3.1 to 4

Binder | pKd
B1 | below the threshold
B2 | 3.53

Each binder was assayed against LNX1_2, Q8TBB1 (assay: holdup assay). Conditions: plain residues with an end cap or a label only (N-terminal biotin on a linker: ado-ado).
Sequence of LNX1_2, Q8TBB1 (Q8TBB1 371-470): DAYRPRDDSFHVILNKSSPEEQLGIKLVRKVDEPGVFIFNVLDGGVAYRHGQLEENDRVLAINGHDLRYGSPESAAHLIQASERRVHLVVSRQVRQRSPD
Set-up: key: below the threshold = too weak to quantify, mostly under pKd 3.1 to 4

Binder | pKd
B1 | below the threshold
B2 | 4.37

Each binder was assayed against MAGI2_4, Q86UL8 (assay: holdup assay). Conditions: plain residues with an end cap or a label only (N-terminal biotin on a linker: ado-ado).
Sequence of MAGI2_4, Q86UL8 (Q86UL8 772-865): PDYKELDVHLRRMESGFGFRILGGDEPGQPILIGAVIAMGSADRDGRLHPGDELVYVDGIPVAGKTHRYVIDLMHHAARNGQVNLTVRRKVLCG
Set-up: key: below the threshold = too weak to quantify, mostly under pKd 3.1 to 4

Binder | pKd
B1 | below the threshold
B2 | 4.53

What follows are binders tested against T4, SNTG2, Q9NY99 (assay: holdup assay). Conditions: plain residues with an end cap or a label only (N-terminal biotin on a linker: ado-ado).
Set-up: key: below the threshold = too weak to quantify, mostly under pKd 3.1 to 4

Binder | pKd
B1 | below the threshold
B2 | 4.1

The binders below were run against Inadl_10, Q8NI35 (assay: holdup assay). Conditions: plain residues with an end cap or a label only (N-terminal biotin on a linker: ado-ado).
Sequence of Inadl_10, Q8NI35 (Q8NI35 1673-1763): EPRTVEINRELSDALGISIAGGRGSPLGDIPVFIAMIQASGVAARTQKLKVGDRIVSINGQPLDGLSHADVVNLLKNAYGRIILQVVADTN
Set-up: key: below the threshold = too weak to quantify, mostly under pKd 3.1 to 4

Binder | pKd
B1 | below the threshold
B2 | 3.75

Each binder was assayed against TJP1_3, Q07157 (assay: holdup assay). Conditions: plain residues with an end cap or a label only (N-terminal biotin on a linker: ado-ado).
Sequence of TJP1_3, Q07157 (Q07157 416-512): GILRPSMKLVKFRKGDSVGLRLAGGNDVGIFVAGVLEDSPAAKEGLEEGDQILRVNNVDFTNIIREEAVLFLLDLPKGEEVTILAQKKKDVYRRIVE
Set-up: key: below the threshold = too weak to quantify, mostly under pKd 3.1 to 4

Binder | pKd
B1 | below the threshold
B2 | below the threshold

These binders were tested against FRMPD2_3, Q68DX3 (assay: holdup assay). Conditions: plain residues with an end cap or a label only (N-terminal biotin on a linker: ado-ado).
Sequence of FRMPD2_3, Q68DX3 (Q68DX3 1073-1166): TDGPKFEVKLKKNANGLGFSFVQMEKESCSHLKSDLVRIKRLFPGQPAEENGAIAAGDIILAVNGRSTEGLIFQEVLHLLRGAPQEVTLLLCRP
Set-up: key: below the threshold = too weak to quantify, mostly under pKd 3.1 to 4

Binder | pKd
B1 | below the threshold
B2 | 3.53

These binders were tested against T5, RHPN1, Q8TCX5 (assay: holdup assay). Conditions: plain residues with an end cap or a label only (N-terminal biotin on a linker: ado-ado).
Set-up: key: below the threshold = too weak to quantify, mostly under pKd 3.1 to 4

Binder | pKd
B1 | below the threshold
B2 | 4.85

The binders below were run against T6, SNTG1, Q9NSN8 (assay: holdup assay). Conditions: plain residues with an end cap or a label only (N-terminal biotin on a linker: ado-ado).
Set-up: key: below the threshold = too weak to quantify, mostly under pKd 3.1 to 4

Binder | pKd
B1 | below the threshold
B2 | 4.06

Each binder was assayed against T7, MPDZ_5, O75970 (assay: holdup assay). Conditions: plain residues with an end cap or a label only (N-terminal biotin on a linker: ado-ado).
Set-up: key: below the threshold = too weak to quantify, mostly under pKd 3.1 to 4

Binder | pKd
B1 | below the threshold
B2 | 3.56

The binders below were run against PTPN3, P26045 (assay: holdup assay). Conditions: plain residues with an end cap or a label only (N-terminal biotin on a linker: ado-ado).
Sequence of PTPN3, P26045 (P26045 505-587): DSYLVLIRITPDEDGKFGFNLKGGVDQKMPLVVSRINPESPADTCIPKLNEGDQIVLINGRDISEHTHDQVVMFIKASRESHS
Set-up: key: below the threshold = too weak to quantify, mostly under pKd 3.1 to 4

Binder | pKd
B1 | 4.13
B2 | 3.75

Each binder was assayed against MAGI1_2, Q96QZ7 (assay: holdup assay). Conditions: plain residues with an end cap or a label only (N-terminal biotin on a linker: ado-ado).
Sequence of MAGI1_2, Q96QZ7 (Q96QZ7 456-580): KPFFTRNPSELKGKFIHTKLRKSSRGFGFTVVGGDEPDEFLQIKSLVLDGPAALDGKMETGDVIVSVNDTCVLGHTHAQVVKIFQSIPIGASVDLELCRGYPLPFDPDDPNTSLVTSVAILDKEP
Set-up: key: below the threshold = too weak to quantify, mostly under pKd 3.1 to 4

Binder | pKd
B1 | below the threshold
B2 | 3.7

These binders were tested against T8, DLG3_2, Q92796 (assay: holdup assay). Conditions: plain residues with an end cap or a label only (N-terminal biotin on a linker: ado-ado).
Set-up: key: below the threshold = too weak to quantify, mostly under pKd 3.1 to 4

Binder | pKd
B1 | below the threshold
B2 | 4.89

These binders were tested against NHERF4_1, Q86UT5-2 (assay: holdup assay). Conditions: plain residues with an end cap or a label only (N-terminal biotin on a linker: ado-ado).
Sequence of NHERF4_1, Q86UT5-2 (Q86UT5 other isoform, or with tags, fused parts or gaps): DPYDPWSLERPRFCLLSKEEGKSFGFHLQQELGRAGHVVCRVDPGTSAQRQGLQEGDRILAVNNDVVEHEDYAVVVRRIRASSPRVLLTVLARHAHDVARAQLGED
Set-up: key: below the threshold = too weak to quantify, mostly under pKd 3.1 to 4

Binder | pKd
B1 | below the threshold
B2 | 4.2

The binders below were run against T9, RADIL, Q96JH8 (assay: holdup assay). Conditions: plain residues with an end cap or a label only (N-terminal biotin on a linker: ado-ado).
Set-up: key: below the threshold = too weak to quantify, mostly under pKd 3.1 to 4

Binder | pKd
B1 | below the threshold
B2 | 5.38

These binders were tested against T10, PTPN13_1, Q12923 (assay: holdup assay). Conditions: plain residues with an end cap or a label only (N-terminal biotin on a linker: ado-ado).
Set-up: key: below the threshold = too weak to quantify, mostly under pKd 3.1 to 4

Binder | pKd
B1 | below the threshold
B2 | below the threshold

Each binder was assayed against T11, DFNB31_1, Q9P202 (assay: holdup assay). Conditions: plain residues with an end cap or a label only (N-terminal biotin on a linker: ado-ado).
Set-up: key: below the threshold = too weak to quantify, mostly under pKd 3.1 to 4

Binder | pKd
B1 | 3.65
B2 | 3.65

The binders below were run against LIMK2, P53671 (assay: holdup assay). Conditions: plain residues with an end cap or a label only (N-terminal biotin on a linker: ado-ado).
Sequence of LIMK2, P53671 (P53671 143-248): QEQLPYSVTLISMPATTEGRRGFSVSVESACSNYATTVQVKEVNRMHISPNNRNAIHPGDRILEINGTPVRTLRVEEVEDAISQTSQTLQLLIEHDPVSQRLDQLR
Set-up: key: below the threshold = too weak to quantify, mostly under pKd 3.1 to 4

Binder | pKd
B1 | below the threshold
B2 | below the threshold

The binders below were run against SCRIB_2, Q14160 (assay: holdup assay). Conditions: plain residues with an end cap or a label only (N-terminal biotin on a linker: ado-ado).
Sequence of SCRIB_2, Q14160 (Q14160 857-960): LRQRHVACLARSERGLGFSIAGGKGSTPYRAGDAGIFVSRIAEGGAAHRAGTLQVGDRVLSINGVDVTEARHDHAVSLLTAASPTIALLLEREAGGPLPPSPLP
Set-up: key: below the threshold = too weak to quantify, mostly under pKd 3.1 to 4

Binder | pKd
B1 | below the threshold
B2 | below the threshold
